Earlier results in patent publication US20120064039A1, “Use of Guanylyl Cyclase C Agonists to Suppress Appetite” (priority 2009, published 2012).

Biological target: ST receptors (guanylate cyclase) (Homo sapiens, UniProt P25092)
Conditions: relative to native ST; about

Sequence of ST receptors (guanylate cyclase) (P25092 24-1073): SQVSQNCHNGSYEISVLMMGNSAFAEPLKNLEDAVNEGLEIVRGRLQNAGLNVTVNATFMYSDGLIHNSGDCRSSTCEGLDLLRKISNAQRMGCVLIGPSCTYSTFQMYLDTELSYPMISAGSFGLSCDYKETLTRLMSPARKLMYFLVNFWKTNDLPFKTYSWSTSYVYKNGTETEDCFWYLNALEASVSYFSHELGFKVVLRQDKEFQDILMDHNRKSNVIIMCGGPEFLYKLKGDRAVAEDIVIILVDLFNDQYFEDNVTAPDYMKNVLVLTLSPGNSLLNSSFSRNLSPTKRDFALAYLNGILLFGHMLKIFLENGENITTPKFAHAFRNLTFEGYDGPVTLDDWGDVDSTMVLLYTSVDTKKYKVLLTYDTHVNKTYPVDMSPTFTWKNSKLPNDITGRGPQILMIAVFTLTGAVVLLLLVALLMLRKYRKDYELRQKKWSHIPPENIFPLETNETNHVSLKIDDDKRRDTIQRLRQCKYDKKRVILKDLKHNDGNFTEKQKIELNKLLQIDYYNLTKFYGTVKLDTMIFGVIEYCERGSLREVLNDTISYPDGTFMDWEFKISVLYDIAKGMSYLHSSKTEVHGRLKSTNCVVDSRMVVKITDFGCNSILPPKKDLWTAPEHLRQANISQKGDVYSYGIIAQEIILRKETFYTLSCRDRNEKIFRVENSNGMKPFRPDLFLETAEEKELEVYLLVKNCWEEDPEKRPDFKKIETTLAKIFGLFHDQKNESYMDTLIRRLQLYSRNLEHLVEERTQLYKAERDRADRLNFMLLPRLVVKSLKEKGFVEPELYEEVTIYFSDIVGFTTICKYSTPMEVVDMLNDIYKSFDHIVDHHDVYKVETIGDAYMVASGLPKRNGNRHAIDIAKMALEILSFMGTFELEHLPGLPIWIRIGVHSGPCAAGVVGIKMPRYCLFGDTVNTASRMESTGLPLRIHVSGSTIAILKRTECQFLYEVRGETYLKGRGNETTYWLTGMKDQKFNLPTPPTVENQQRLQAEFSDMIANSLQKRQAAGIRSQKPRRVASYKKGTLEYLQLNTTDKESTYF

## guanylin (PNTCEICAYAACTGC; listed as Rattus norvegicus) [native GCC ligand]
  activates guanylate cyclase at a level less than native ST: 10- to 100 fold
